# Source: PMC9780223 (2022)
# B1: IGFBP4 with C-terminal His6 tag (natural protein)
# chain: DEAIHCPPCSEEKLARCRPPVGCEELVREPGCGCCATCALGLGMPCGVYTPRCGSGLRCYPPRGVEKPLHTLMHGQGVCMELAEIEAIQESLQPSDKDEGDHPNNSFSPCSAHDRRCLQKHFAKIRDRSTSGGKMKVNGAPREDARPVPQGSCQSELHRALERLAASQSRTHEDLYIIPIPNCDRNGNFHPKQCHPALDGQRGKCWCVDRKTGVKLPGGLEPKGELDCHQLADSFRE
# Molecular target: purified recombinant PAPP-A free of STC2 (apo PAPP-A) (human, UniProt Q13219 82-1627, fluorescently labeled with Protein Labeling Kit RED-NHS (in MST))
# Experiment: MST; in the presence of IGF2
binder,measurement,value
B1,Kd,~160 nM
